Reference: publication PMC9482650, “Quantitative fragmentomics allow affinity mapping of interactomes” (Nature Communications, 2022)

Tests used:
Assay in all cases: holdup assay
Set-up in all cases: key: below the threshold = too weak to quantify, mostly under pKd 3.1 to 4
NHERF3_3, Q5T2W1 = molecular target: T1, NHERF3_3, Q5T2W1
T1 sequence (Q5T2W1 238-333, limits assumed, looked up): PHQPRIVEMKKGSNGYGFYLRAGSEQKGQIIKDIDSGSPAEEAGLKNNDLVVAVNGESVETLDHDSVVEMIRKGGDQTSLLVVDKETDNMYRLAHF

GORASP2, Q9H8Y8 = molecular target: GORASP2, Q9H8Y8
Inadl_5, Q8NI35 = molecular target: Inadl_5, Q8NI35
Inadl_5, Q8NI35, sequence (Q8NI35 673-780): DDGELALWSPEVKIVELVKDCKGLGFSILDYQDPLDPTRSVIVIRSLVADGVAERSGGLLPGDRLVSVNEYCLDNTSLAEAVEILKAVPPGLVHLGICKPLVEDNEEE

Inadl_9, Q8NI35 = molecular target: Inadl_9, Q8NI35
Inadl_9, Q8NI35, sequence (Q8NI35 1530-1615): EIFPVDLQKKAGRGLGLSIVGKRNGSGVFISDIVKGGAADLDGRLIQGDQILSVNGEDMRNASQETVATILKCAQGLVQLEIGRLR

MAGI3_2, Q5TCQ9 = molecular target: MAGI3_2, Q5TCQ9
MAGI3_2, Q5TCQ9, sequence (Q5TCQ9 398-503): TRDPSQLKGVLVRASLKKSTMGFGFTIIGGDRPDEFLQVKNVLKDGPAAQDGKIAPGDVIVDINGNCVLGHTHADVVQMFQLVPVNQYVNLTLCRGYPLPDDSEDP

SNX27, Q96L92 = molecular target: SNX27, Q96L92
PICK1, Q9NRD5 = molecular target: PICK1, Q9NRD5
PICK1, Q9NRD5, sequence (Q9NRD5 17-115): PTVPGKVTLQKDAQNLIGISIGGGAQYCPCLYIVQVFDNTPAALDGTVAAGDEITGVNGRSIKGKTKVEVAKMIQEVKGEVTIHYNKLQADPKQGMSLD

HTRA3, P83110 = molecular target: T2, HTRA3, P83110
T2 sequence (P83110 354-453, limits assumed, looked up): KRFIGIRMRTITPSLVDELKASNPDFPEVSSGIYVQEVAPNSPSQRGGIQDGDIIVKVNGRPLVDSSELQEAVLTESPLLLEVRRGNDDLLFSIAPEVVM

HTRA1, Q92743 = molecular target: HTRA1, Q92743
HTRA1, Q92743, sequence (Q92743 360-477): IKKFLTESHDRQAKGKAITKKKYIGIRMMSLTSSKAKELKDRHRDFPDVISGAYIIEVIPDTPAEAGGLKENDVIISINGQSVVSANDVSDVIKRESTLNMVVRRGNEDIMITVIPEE

ARHGEF11, O15085 = molecular target: T3, ARHGEF11, O15085
T3 sequence (O15085 42-136, limits assumed, looked up): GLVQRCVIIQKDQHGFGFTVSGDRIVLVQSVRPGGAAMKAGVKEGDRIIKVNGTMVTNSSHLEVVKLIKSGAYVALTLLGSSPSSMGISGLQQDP

DFNB31_2, Q9P202 = molecular target: T4, DFNB31_2, Q9P202
T4 sequence (Q9P202 274-371, limits assumed, looked up): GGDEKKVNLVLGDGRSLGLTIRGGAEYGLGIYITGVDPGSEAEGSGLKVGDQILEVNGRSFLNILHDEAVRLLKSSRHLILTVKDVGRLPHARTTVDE

APBA2_2, Q99767 = molecular target: T5, APBA2_2, Q99767
T5 sequence (Q99767 654-744, limits assumed, looked up): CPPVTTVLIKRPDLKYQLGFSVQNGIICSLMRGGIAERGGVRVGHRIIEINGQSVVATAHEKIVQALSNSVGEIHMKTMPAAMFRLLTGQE

TJP1_2, Q07157 = molecular target: TJP1_2, Q07157
TJP1_2, Q07157, sequence (Q07157 181-274): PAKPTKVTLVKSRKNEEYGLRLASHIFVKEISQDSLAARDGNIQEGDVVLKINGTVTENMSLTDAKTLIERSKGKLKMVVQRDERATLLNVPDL

DFNB31_3, Q9P202 = molecular target: T6, DFNB31_3, Q9P202
T6 sequence (Q9P202 811-907, limits assumed, looked up): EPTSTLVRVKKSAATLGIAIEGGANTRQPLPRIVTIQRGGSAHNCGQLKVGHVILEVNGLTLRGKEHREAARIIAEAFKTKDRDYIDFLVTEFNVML

MPDZ_10, O75970 = molecular target: T7, MPDZ_10, O75970
T7 sequence (O75970 1624-1722, limits assumed, looked up): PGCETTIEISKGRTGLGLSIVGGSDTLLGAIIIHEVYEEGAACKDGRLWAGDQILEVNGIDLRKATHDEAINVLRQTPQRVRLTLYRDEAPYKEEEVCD

Inadl_1, Q8NI35 = molecular target: Inadl_1, Q8NI35
Inadl_1, Q8NI35, sequence (Q8NI35 113-229): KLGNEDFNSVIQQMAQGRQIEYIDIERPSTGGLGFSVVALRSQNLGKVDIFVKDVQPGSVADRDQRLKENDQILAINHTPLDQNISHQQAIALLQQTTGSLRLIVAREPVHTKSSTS

LNX2_2, Q8N448 = molecular target: T8, LNX2_2, Q8N448
T8 sequence (Q8N448 334-432, limits assumed, looked up): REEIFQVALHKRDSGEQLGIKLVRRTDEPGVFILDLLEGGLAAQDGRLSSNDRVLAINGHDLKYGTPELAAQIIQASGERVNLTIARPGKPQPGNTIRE

Inadl_4, Q8NI35 = molecular target: Inadl_4, Q8NI35
Inadl_4, Q8NI35, sequence (Q8NI35 547-651): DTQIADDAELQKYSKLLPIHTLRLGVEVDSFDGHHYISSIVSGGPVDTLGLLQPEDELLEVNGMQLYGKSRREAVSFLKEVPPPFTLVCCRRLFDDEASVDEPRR

IL16_3, Q14005 = molecular target: IL16_3, Q14005
IL16_3, Q14005, sequence (Q14005 1107-1207): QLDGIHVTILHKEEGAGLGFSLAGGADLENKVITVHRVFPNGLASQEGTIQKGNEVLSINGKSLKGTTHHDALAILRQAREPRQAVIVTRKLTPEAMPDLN

GOPC, Q9HD26 = molecular target: GOPC, Q9HD26
MAGI1_1, Q96QZ7 = molecular target: MAGI1_1, Q96QZ7
MAGI1_1, Q96QZ7, sequence (Q96QZ7 1-106): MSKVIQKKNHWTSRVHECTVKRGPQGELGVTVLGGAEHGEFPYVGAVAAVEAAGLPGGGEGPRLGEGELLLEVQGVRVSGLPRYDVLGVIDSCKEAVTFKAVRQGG

GRIP2_4, Q9C0E4 = molecular target: GRIP2_4, Q9C0E4
GRIP2_4, Q9C0E4, sequence (Q9C0E4 446-548): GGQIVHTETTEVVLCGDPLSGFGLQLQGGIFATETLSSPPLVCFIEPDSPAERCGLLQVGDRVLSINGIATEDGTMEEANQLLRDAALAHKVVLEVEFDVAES

LNX2_3, Q8N448 = molecular target: T9, LNX2_3, Q8N448
T9 sequence (Q8N448 463-564, limits assumed, looked up): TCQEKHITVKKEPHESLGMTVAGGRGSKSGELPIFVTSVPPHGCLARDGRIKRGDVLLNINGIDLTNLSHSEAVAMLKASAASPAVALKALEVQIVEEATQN

HTRA2, O43464 = molecular target: HTRA2, O43464
HTRA2, O43464, sequence (O43464 355-458): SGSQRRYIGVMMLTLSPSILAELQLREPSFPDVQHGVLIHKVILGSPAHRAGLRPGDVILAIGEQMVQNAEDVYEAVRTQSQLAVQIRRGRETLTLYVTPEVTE

DLG1_3, Q12959 = molecular target: DLG1_3, Q12959
DLG1_3, Q12959, sequence (Q12959 457-571): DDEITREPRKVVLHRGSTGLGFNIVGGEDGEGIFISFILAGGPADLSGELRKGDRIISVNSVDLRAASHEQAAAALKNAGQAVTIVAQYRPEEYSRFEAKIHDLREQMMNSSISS

MAST1, Q9Y2H9 = molecular target: MAST1, Q9Y2H9
MAST1, Q9Y2H9, sequence (Q9Y2H9 962-1065): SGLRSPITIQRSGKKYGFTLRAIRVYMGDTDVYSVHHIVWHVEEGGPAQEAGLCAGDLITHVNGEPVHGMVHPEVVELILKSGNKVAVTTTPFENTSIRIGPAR

GRIP2_5, Q9C0E4 = molecular target: GRIP2_5, Q9C0E4
GRIP2_5, Q9C0E4, sequence (Q9C0E4 544-642): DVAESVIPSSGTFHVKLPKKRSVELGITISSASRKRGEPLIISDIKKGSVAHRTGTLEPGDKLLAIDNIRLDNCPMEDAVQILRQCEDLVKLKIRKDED

GRID2IP_2, A4D2P6 = molecular target: GRID2IP_2, A4D2P6
GRID2IP_2, A4D2P6, sequence (A4D2P6 272-370): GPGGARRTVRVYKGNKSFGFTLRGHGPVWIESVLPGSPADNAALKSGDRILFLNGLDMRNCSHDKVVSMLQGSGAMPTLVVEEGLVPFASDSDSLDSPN

TJP1_3, Q07157 = molecular target: TJP1_3, Q07157
TJP1_3, Q07157, sequence (Q07157 416-512): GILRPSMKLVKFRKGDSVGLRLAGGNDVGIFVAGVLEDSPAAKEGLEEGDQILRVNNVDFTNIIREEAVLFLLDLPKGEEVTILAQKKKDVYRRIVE

[1] = plain residues with an end cap or a label only (N-terminal biotin on a linker: ttds)
[2] = plain residues with an end cap or a label only (N-terminal biotin on a linker: ado-ado)

**Q.** Which results are given for HIVEALETDV [PBK, Q96KB5]?
**A.** pKd (NHERF3_3, Q5T2W1; [1]): below the threshold; pKd (GORASP2, Q9H8Y8; [1]): below the threshold; pKd (Inadl_5, Q8NI35; [1]): below the threshold; pKd (Inadl_9, Q8NI35; [1]): below the threshold; pKd (MAGI3_2, Q5TCQ9; [1]): 4.29; pKd (SNX27, Q96L92; [1]): 4.83; pKd (PICK1, Q9NRD5; [1]): below the threshold; pKd (HTRA3, P83110; [1]): below the threshold; pKd (HTRA1, Q92743; [1]): below the threshold; pKd (ARHGEF11, O15085; [1]): 4.31; pKd (DFNB31_2, Q9P202; [1]): below the threshold; pKd (APBA2_2, Q99767; [1]): below the threshold; pKd (TJP1_2, Q07157; [1]): below the threshold; pKd (DFNB31_3, Q9P202; [1]): below the threshold; pKd (MPDZ_10, O75970; [1]): below the threshold; pKd (Inadl_1, Q8NI35; [1]): below the threshold; pKd (LNX2_2, Q8N448; [1]): 3.92; pKd (Inadl_4, Q8NI35; [1]): below the threshold; pKd (IL16_3, Q14005; [1]): below the threshold; pKd (GOPC, Q9HD26; [1]): below the threshold; pKd (MAGI1_1, Q96QZ7; [1]): below the threshold; pKd (GRIP2_4, Q9C0E4; [1]): below the threshold; pKd (LNX2_3, Q8N448; [1]): below the threshold; pKd (HTRA2, O43464; [1]): below the threshold; pKd (DLG1_3, Q12959; [1]): below the threshold; pKd (MAST1, Q9Y2H9; [1]): 5.15; pKd (GRIP2_5, Q9C0E4; [1]): below the threshold; pKd (GRID2IP_2, A4D2P6; [1]): 3.96; pKd (TJP1_3, Q07157; [1]): below the threshold

**Q.** With SVVSERISSV [HTR2C, P28335] as the binder, how does the pKd (NHERF3_3, Q5T2W1; [2]) read?
**A.** Its pKd is “below the threshold”.

**Q.** And the pKd (GORASP2, Q9H8Y8; [2])?
**A.** The pKd was 3.89.

**Q.** And the pKd (Inadl_5, Q8NI35; [2])?
**A.** Its pKd is “below the threshold”.

**Q.** What about the pKd (Inadl_9, Q8NI35; [2]) of the same binder?
**A.** The pKd was “below the threshold”.

**Q.** And the pKd (MAGI3_2, Q5TCQ9; [2])?
**A.** The pKd was 4.46.

**Q.** And the pKd (SNX27, Q96L92; [2])?
**A.** Its pKd is 5.06.

**Q.** And the pKd (PICK1, Q9NRD5; [2])?
**A.** The pKd was “below the threshold”.

**Q.** What about the pKd (HTRA3, P83110; [2]) of the same binder?
**A.** Its pKd is “below the threshold”.

**Q.** What about the pKd (HTRA1, Q92743; [2]) of the same binder?
**A.** The pKd was 4.18.

**Q.** What about the pKd (ARHGEF11, O15085; [2]) of the same binder?
**A.** The pKd was 3.84.

**Q.** And the pKd (DFNB31_2, Q9P202; [2])?
**A.** The pKd was “below the threshold”.

**Q.** And the pKd (APBA2_2, Q99767; [2])?
**A.** Its pKd is “below the threshold”.

**Q.** And the pKd (TJP1_2, Q07157; [2])?
**A.** The pKd was “below the threshold”.

**Q.** And the pKd (DFNB31_3, Q9P202; [2])?
**A.** The pKd was 3.76.

**Q.** And the pKd (MPDZ_10, O75970; [2])?
**A.** Its pKd is 4.29.

**Q.** What about the pKd (Inadl_1, Q8NI35; [2]) of the same binder?
**A.** The pKd was “below the threshold”.

**Q.** And the pKd (LNX2_2, Q8N448; [2])?
**A.** Its pKd is 3.96.

**Q.** And the pKd (Inadl_4, Q8NI35; [2])?
**A.** The pKd was “below the threshold”.

**Q.** What about the pKd (IL16_3, Q14005; [2]) of the same binder?
**A.** The pKd was “below the threshold”.

**Q.** And the pKd (GOPC, Q9HD26; [2])?
**A.** Its pKd is “below the threshold”.

**Q.** What about the pKd (MAGI1_1, Q96QZ7; [2]) of the same binder?
**A.** The pKd was “below the threshold”.

**Q.** And the pKd (GRIP2_4, Q9C0E4; [2])?
**A.** Its pKd is “below the threshold”.

**Q.** What about the pKd (LNX2_3, Q8N448; [2]) of the same binder?
**A.** The pKd was “below the threshold”.

**Q.** What about the pKd (HTRA2, O43464; [2]) of the same binder?
**A.** Its pKd is “below the threshold”.

**Q.** What about the pKd (DLG1_3, Q12959; [2]) of the same binder?
**A.** The pKd was “below the threshold”.

**Q.** What about the pKd (MAST1, Q9Y2H9; [2]) of the same binder?
**A.** The pKd was 4.02.

**Q.** And the pKd (GRIP2_5, Q9C0E4; [2])?
**A.** The pKd was “below the threshold”.

**Q.** And the pKd (GRID2IP_2, A4D2P6; [2])?
**A.** The pKd was 4.44.

**Q.** What about the pKd (TJP1_3, Q07157; [2]) of the same binder?
**A.** The pKd was “below the threshold”.

**Q.** Which results are given for MERLRVETDV [ARHGEF16, Q5VV41]?
**A.** pKd (NHERF3_3, Q5T2W1; [1]): below the threshold; pKd (GORASP2, Q9H8Y8; [1]): 4.25; pKd (Inadl_5, Q8NI35; [1]): below the threshold; pKd (Inadl_9, Q8NI35; [1]): below the threshold; pKd (MAGI3_2, Q5TCQ9; [1]): 4.6; pKd (SNX27, Q96L92; [1]): 4.17; pKd (PICK1, Q9NRD5; [1]): below the threshold; pKd (HTRA3, P83110; [1]): below the threshold; pKd (HTRA1, Q92743; [1]): below the threshold; pKd (ARHGEF11, O15085; [1]): 4.21; pKd (DFNB31_2, Q9P202; [1]): below the threshold; pKd (APBA2_2, Q99767; [1]): below the threshold; pKd (TJP1_2, Q07157; [1]): below the threshold; pKd (DFNB31_3, Q9P202; [1]): below the threshold; pKd (MPDZ_10, O75970; [1]): 3.71; pKd (Inadl_1, Q8NI35; [1]): below the threshold; pKd (LNX2_2, Q8N448; [1]): 3.93; pKd (Inadl_4, Q8NI35; [1]): below the threshold; pKd (IL16_3, Q14005; [1]): below the threshold; pKd (GOPC, Q9HD26; [1]): 3.84; pKd (MAGI1_1, Q96QZ7; [1]): below the threshold; pKd (GRIP2_4, Q9C0E4; [1]): below the threshold; pKd (LNX2_3, Q8N448; [1]): below the threshold; pKd (HTRA2, O43464; [1]): below the threshold; pKd (DLG1_3, Q12959; [1]): 3.86; pKd (MAST1, Q9Y2H9; [1]): 4.39; pKd (GRIP2_5, Q9C0E4; [1]): below the threshold; pKd (GRID2IP_2, A4D2P6; [1]): 3.57; pKd (TJP1_3, Q07157; [1]): below the threshold
